From patent publication US20150086999

Molecular target: Q13093
Assay: estimated from residual CAM activity after 10 days at 4 C against enzyme concentration (dilution inactivation); self-association

B1: recombinant lipoprotein-associated phospholipase A2 (rLp-PLA2) expressed in HEK293 cells (protein)
chain: FDWQYINPVAHMKSSAWVNKIQVLMAAASFGQTKIPRGNGPYSVGCTDLMFDHTNKGTFLRLYYPSQDNDRLDTLWIPNKEYFWGLSKFLGTHWLMGNILRLLFGSMTTPANWNSPLRPGEKYPLVVFSHGLGAFRTLYSAIGIDLASHGFIVAAVEHRDRSASATYYFKDQSAAEIGDKSWLYLRTLKQEEETHIRNEQVRQRAKECSQALSLILDIDHGKPVKNALDLKFDMEQLKDSIDREKIAVIGHSFGGATVIQTLSEDQRFRCGIALDAWMFPLGDEVYSRIPQPLFFINSEYFQYPANIIKMKKCYSPDKERKMITIRGSVHQNFADFTFATGKIIGHMLKLKGDIDSNVAIDLSNKASLAFLQKHLGLHKDFDQWDCLIEGDDENLIPGTNINTTNQHIMLQNSSGIEKYN
- concentration at which half is monomer and half aggregate or oligomer: At the concentration at 2.5 µg/ml or 53 nM, roughly half of rLp-PLA2 is in monomer and half forms the aggregate or oligomer as estimated
